{"source": "FireProtDB (doi:10.1016/j.jmb.2011.02.053)", "proteins": {"B1": {"name": "Guanyl-specific ribonuclease Sa wild type, P05798 (protein)", "chain": "DVSGTVCLSALPPEATDTLNLIASDGPFPYSQDGVVFQNRESVLPTQSYGYYHEYTVITPGARTRGTRRIITGEATQEDYYTGDHYATFSLIDQTC"}, "B2": {"name": "Guanyl-specific ribonuclease T1 wild type, P00651 (protein)", "chain": "MMYSKLLTLTTLLLPTALALPSLVERACDYTCGSNCYSSSDVSTAQAAGYQLHEDGETVGSNSYPHKYNNYEGFDFSVSSPYYEWPILSSGDVYSGGSPGADRVVFNENNQLAGVITHTGASGNNFVECT"}, "B3": {"name": "Variable large protein wild type, O06878 (protein)", "chain": "MKKISSAILLTTFFVFINCKSQVADKDDPTNKFYQSVIQLGNGFLDVFTSFGGLVAEAFGFKSDPKKSDVKTYFTTVAAKLEKTKTDLNSLPKEKSDISSTTGKPDSTGSVGTAVEGAIKEVSELLDKLVKAVKTAEGASSGTAAIGEVVADADAAKVADKASVKGIAKGIKEIVEAAGGSEKLKAVAAAKGENNKGAGKLFGKAGAAAHGDSEAASKAAGAVSAVSGEQILSAIVTAADAAEQDGKKPEEAKNPIAAAIGDKDGGAEFGQDEMKKDDQIAAAIALRGMAKDGKFAVKDGEKEKAEGAIKGAAESAVRKVLGAITGLIGDAVSSGLRKVGDSVKAASKETPPALNK"}}, "details": "pH 7, Fluorescence, transition: 2, reversible: yes, whole UniProt chain shown; for denaturant midpoint (higher = more stable) / unfolding free energy: 25 °C, Urea", "key": {"[1]": {"details": "Aspergillus oryzae (strain ATCC 42149 / RIB 40), MOPS 30mM"}, "[2]": {"details": "Borreliella burgdorferi, Sodium phosphate 5mM"}}, "data": [{"protein": "B1", "values": [{"measurement": "unfolding enthalpy (calorimetric)", "setting": "Kitasatospora aureofaciens, Thermal, MOPS 30mM", "result": 92, "unit": "kcal/mol"}]}, {"protein": "B2", "values": [{"measurement": "denaturant midpoint (higher = more stable)", "setting": "[1]", "result": 5.3, "unit": "M"}, {"measurement": "unfolding free energy", "setting": "[1]", "result": 6.4, "unit": "kcal/mol"}]}, {"protein": "B3", "values": [{"measurement": "denaturant midpoint (higher = more stable)", "setting": "[2]", "result": 1.19, "unit": "M"}, {"measurement": "unfolding free energy", "setting": "[2]", "result": 4.6, "unit": "kcal/mol"}]}]}
